Measured values reported in patent US20050287636.

Tests used:
[1] = molecular target: proapoA-I-A158E
[2] = molecular target: proapoA-I-D157K
[3] = molecular target: proapoA-I-V156K
[4] = molecular target: wild-type (WT) proapoA-I
[5] = molecular target: proapoA-I-H155E
[6] = molecular target: proapoA-I-A154E
proapoA-I-A154E, sequence (chain, as listed by the source A154E): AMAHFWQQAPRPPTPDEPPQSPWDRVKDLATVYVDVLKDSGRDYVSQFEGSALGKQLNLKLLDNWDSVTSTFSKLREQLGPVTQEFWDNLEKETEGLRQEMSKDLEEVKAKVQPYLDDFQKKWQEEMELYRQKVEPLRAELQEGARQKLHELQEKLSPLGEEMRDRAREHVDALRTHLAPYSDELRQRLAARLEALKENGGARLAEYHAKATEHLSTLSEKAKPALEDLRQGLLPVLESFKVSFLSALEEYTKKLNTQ

wild-type (WT) proapoA-I, sequence (chain, as listed by the source): as the sequence (chain, as listed by the source A154E) above, with E169A counted along it
proapoA-I-D157K, sequence (chain, as listed by the source D157K): as the sequence (chain, as listed by the source A154E) above, with E169A, D172K counted along it
proapoA-I-H155E, sequence (chain, as listed by the source H155E): as the sequence (chain, as listed by the source A154E) above, with E169A, H170E counted along it
proapoA-I-A158E, sequence (chain, as listed by the source A158E): as the sequence (chain, as listed by the source A154E) above, with E169A, A173E counted along it
proapoA-I-V156K, sequence (chain, as listed by the source V156K): as the sequence (chain, as listed by the source A154E) above, with E169A, V171K counted along it

B1: LCAT (lecitin:cholesterol acyltransferase) (protein)
chain: FWLLNVLFPPHTTPKAELSNHTRPVILVPGCLGNQLEAKLDKPDVVNWMCYRKTEDFFTIWLDLNMFLPLGVDCWIDNTRVVYNRSSGLVSNAPGVQIRVPGFGKTYSVEYLDSSKLAGYLHTLVQNLVNNGYVRDETVRAAPYDWRLEPGQQEEYYRKLAGLVEEMHAAYGKPVFLIGHSLGCLHLLYFLLRQPQAWKDRFIDGFISLGAPWGGSIKPMLVLASGDNQGIPIMSSIKLKEEQRITTTSPWMFPSRMAWPEDHVFISTPSFNYTGRDFQRFFADLHFEEGWYMWLQSRDLLAGLPAPGVEVYCLYGVGLPTPRTYIYDHGFPYTDPVGVLYEDGDDTVATRSTELCGLWQGRQPQPVHLLPLHGIQHLNMVFSNLTLEHINAILLGAYRQGPPASPTASPEPPPPE
For B1, the Apparent Vmax (LCAT activation by POPC-rHDL) [1] was 0.5, the Apparent Vmax (LCAT activation by POPC-rHDL) [2] was 1.8 and the Apparent Vmax (LCAT activation by POPC-rHDL) [3] was 0.3. The Apparent Vmax (LCAT activation by POPC-rHDL) [4] was 3.3, the Apparent Vmax (LCAT activation by POPC-rHDL) [5] was 2.6 and the Apparent Vmax (LCAT activation by POPC-rHDL) [6] was 3.5.
